Assay results published in paper PMC2192122.

B1: SWM peptide 103-114-[G108] (peptide)
peptide: YLEFIGEAIIHV
B2: SWM peptide 101-112-[G108] (peptide)
peptide: IKYLEFIGEAII
B3: sperm whale myoglobin (SWM) peptide 105-116 (peptide)
peptide: EFISEAIIHVLH
B4: SWM peptide 105-116-[L114] (peptide)
peptide: EFISEAIIHLLH
B5: SWM peptide 105-116-[I114] (peptide)
peptide: EFISEAIIHILH
B6: sperm whale myoglobin (SWM) peptide 110-121 (peptide)
peptide: AIIHVLHSRHPG
B7: SWM peptide 105-116-[P113] (peptide)
peptide: EFISEAIIPVLH
B8: SWM peptide 102-113-[G108] (peptide)
peptide: KYLEFIGEAIIH
B9: SWM peptide 104-115-[G108] (peptide)
peptide: LEFIGEAIIHVL
B10: SWM peptide 105-116-[G107] (peptide)
peptide: EFGSEAIIHVLH

Target: MHC class II molecule I-Ad (mouse (endogenous in A20 lymphoma cells))
Test: radioligand binding
Conditions: for relative binding to MHC: scale: relative to unlabeled OVA peptide 323-339

| Molecule | relative binding to MHC | IC50 [nM] |
| --- | --- | --- |
| SWM peptide 105-116-[G108] (from UniProt P02185 106-117) | 0.1 | – |
| OVA peptide 323-339 (unlabeled) (from UniProt P01012 324-340) | – | 131 |
| B1 | 0.04 | – |
| B2 | 0.003 | – |
| B3 | 1.5 | – |
| B4 | 0.18 | – |
| B5 | 0.01 | – |
| B6 | 0.59 | – |
| B7 | 1.8 | – |
| B8 | 0.011 | – |
| B9 | 0.013 | – |
| B10 | 0.34 | – |
